Measured values: patent US8173133B2, “Acyl pseudodipeptides which carry a functionalized auxiliary arm” (OM Pharma, priority 1999, dated 2012)

Tests used:
Spleenic cells = assay: murine spleenic cell proliferation (3H-TdR take-up); type: cell-based, CBA mice; details: 5 μg/ml, one day of culture, positive control
Experimental: Cell proliferation response is assessed by measuring triturated thymidine (^3H-TdR) take-up after 1 or 2 days of culture. Values reported in the table stand for the arithmetic mean±standard deviation of 4 cultures.

murine macrophage cells = assay: nitric oxide production by murine macrophage cells (Griess); type: cell-based, C57/BL6 mice
Text: Six-week old male C57/BL6 mice are killed by CO2 inhalation. The hip, femur, tibia and posterior appendage bones are removed. The bone marrow is extracted from the bone lumen by injecting Dulbecco's Modified Eagle Medium (DH medium) from the end portions which had been excised. The stem cells are washed and resuspended (approximate cell concentration 4000 cells/ml) in DH medium supplemented with 20% equine serum (SH) and 30% L929 cell supernatant. L929 is a murine fibroblast cell line the supernatant fluid of which is rich in growth factor for macrophage cells (M-CSF). The cell suspension is divided into Petri dishes which are incubated for 8 days in an incubator at 37° C. under 8% CO2 and a moisture saturated atmosphere.
After 8 days, the stem cells have differentiated into mature macrophage cells. The macrophage cells are scraped off by rapid cooling, washed and resuspended in DH medium supplemented with 5% foetal calf serum (FCS), amino acids and antibiotics. The cell density is adjusted to 700 000 cells/ml.
Products previously dissolved in DH medium supplemented with 5% FCS, amino acids and antibiotics are serially diluted directly in microtiter plates. The products are tested in triplicates and each microtiter plate comprises a negative control containing plain medium. The final volume in each well is 100 μl.
100 μl of cell suspension are added to diluted solutions of such products and the cells are incubated for 22 hours in an incubator at 37° C., under 8% CO2 and a moisture saturated atmosphere. At the end of the incubation period with the products, 100 μl of supernatant are withdrawn and the nitrite concentration is determined by running a Griess reaction.
100 μl of Griess reagent (5 mg/ml of sulfanilamide+0.5 mg/ml of N-(1-naphtylethylene diamine hydrochloride)) in 2.5% aq. phosphoric acid, are added to each well. The microtiter plates are read with a spectrophotometer at 562 nm wavelength against a reference sample at 690 nm. The nitrite concentration is proportional to nitric oxide content being formed. The nitrite content is determined based on a standard curve.
The results are given as mean value±standard deviation and plotted as a dose versus response curve.
From this dose versus response curve, 3 curve variables are computed:
Max: maximum curve amplitude and corresponding concentration
EC50: concentration corresponding to 50% of maximum amplitude
Min: lowest concentration inducing a significant proliferation corresponding to the blank±3× standard deviation value
Concentration values corresponding to EC50 and Min are determined from line segments joining different points on the curve.
If the curve has no plateau phase but an ascending configuration for the highest concentration being tested, a “>” sign is shown before “Max” and “EC50” values.

[1] = system: human peripheral blood mononuclear cells; assay: α TNF production by human peripheral blood mononuclear cells; type: cell-based; details: 18 hours
Experimental: (§1) Mononuclear cells of peripheral blood are recovered from buffy coats of 6 healthy donors. Such buffy coat cells are resuspended and mononuclear cells are isolated by centrifugation on a Ficoll-Paque gradient (Amersham Pharmacia). Purified mononuclear cells are resuspended into RPMI-1640 medium supplemented with 10% FCS, antibiotics, mercaptoethanol and L-glutamine. Cell concentration is adjusted to 2×10^6 viable cells/ml
100 μl of each one of these solutions of acyl dipeptide-like compounds bearing an accessory functional side chain spacer, diluted 100-, 10- or 1-fold in RPMI medium 1640, are dispensed into a microtiter plate. Samples are tested in triplicates, and each microtiter plate includes a negative control made up of plain medium. Dilutions of E. coli LPS (ranging grom 1 to 0.00001 μg/ml) are used as a positive control.
100 μl of the cell suspension are added to each well containing product dilute solutions or control. Cells are incubated with the products for 18 hours in an incubator at 37° C., under 5% CO2 and a moisture saturated atmosphere.
At the end of the incubation period, microtiter plates are centrifuged, and the supernatant fluids are pooled and frozen at −80° C. as aliquots until time of ELISA assay.
Concentration of α TNF secreted by mononuclear cells is determined by chemiluminescent ELISA (QuantiGlo #QTAOO R&D kit). 4-fold supernatant fluid dilutions are dispensed into each well of the microtiter plate to which anti-αTNF antibodies are bound. The microtiter plate is incubated for 4 hours at room temperature. After washing, peroxidase-conjugated anti-human a TNF antibody is added. Following a 2 hour incubation period and thorough washing, a chemiluminescent substrate is added and chemilunescence is read after 20 minutes. α TNF content in the supernatant fluid is determined with respect to a standard curve covering the 7000 to 0.7 pg/ml range.
Results are expressed in pg/ml of α TNF produced. Results derive from an experiment representative of acyl-dipeptide-like compound activity

[2] = system: human peripheral blood mononuclear cells; assay: inhibition of E. coli LPS-induced α TNF production in human peripheral blood mononuclear cells; type: cell-based; details: product 10 μg/ml
Experimental: as §1, with “cells/ml.” for “cells/ml”
Product mediated Inhibition is determined by preincubating those products with mononuclear cells, and adding, 1 hour later, serially diluted solutions of LPS capable of inducing α TFN production. […] E. coli LPS is serially diluted (10-fold dilution) to be in the range of 1 to 0.00001 μg/ml
50 μl of 10 μg/ml dilute product solutions in RPMI 1640 medium are dispensed into a microtiter plate. Each assay (10 μg/ml product concentration+dilute E. coli LPS) is run in triplicates and each microtiter plate includes a negative control comprised of plain medium. LPS-induced α TNF production (without inhibitor) is determined by adding E. coli LPS dilutions to RPMI medium.
100 μl of the cell suspension are added to each well containing dilutions of either product or control. Cells are incubated with the products for 1 hour in an incubator at 37° C., under 5% CO2 and a moisture saturated atmosphere.
At the end of the pre-incubation period, 50 μl of serially diluted solutions of E. coli LPS are added. Incubation of mononuclear cells with the product and LPS is extended for 18 hours. At the end of the cell activation period, the microtiter plates are centrifuged, and the supernatants are pooled and frozen at −80° C. as aliquots until time of ELISA assay.
Concentration of αTNF secreted by mononuclear cells is determined by chemiluminescent ELISA (QuantiGlo #QTAOO R&D kit). 4-fold dilutions of supernatant fluid are dispensed into each well of the microtiter plate to which anti-human αTNF antibodies are bound. The microtiter plate is incubated for 4 hours at room temperature. After washing, peroxidase-conjugated anti-human αTNF antibody is added. Following a 2 hour incubation period and a thorough washing, a chemiluminescent substrate is added and chemilunescence is read after 20 minutes. αTNF content in the supernatant fluid is determined with respect to a standard curve covering the 7000 to 0.7 pg/ml range.
Inhibition is characterized by the E. coli LPS concentration which elicits 50% production of α TNF during co-incubation in comparison to a control including only RPMI. This concentration increases as product inhibition activity becomes stronger. Knowing inhibition values of α TNF production, this concentration is given by calculating 100-(αTNF production induced by product and LPS)/(αTNF production induced by LPS alone)*100. From these inhibition data, concentration is determined by linear regression along the line segment which joins 2 LPS dilutions giving approx. 50% inhibition.
Product ability to inhibit α TNF production in mononuclear cells in response to LPS is further characterized by maximum inhibition. […] Results are calculated from a representative experience using all products.

[3] = system: Limulus Amoebocyte Lysate
K562 cells = assay: activation of NK cell cytotoxicity against K562 target cells (LDH release); type: cell-based, human
Experimental: PBMC were recovered from buffy coats according to the procedure previously described in example 4.6. […] Cells were incubated under such conditions for 24 hours. K562 cells (human leukemia cell line, ATCC #CCL 243, 20110-2209 Manassas (Va.), U.S.A.) were maintained in culture using RPMI medium containing 10% FCS and subjected to 2 passages per week.
In order to make cytotoxicity measurement, PBMC and K562 cells were washed twice in HBSS and resuspended in Phenol Red-free RPMI medium containing 5% FCS. PBMC were divided into a round bottom 96-well plate so as to achieve a PBMC/target ratio of 20/1, 10/1 and 5/1 in 50 μl volume. 5000 K562 cells (target) were added in each well using 50 μl of Phenol Red-free RPMI. Final volume was 100 μl. The plate was centrifuged to promote contact then incubated at 37° C. for 4 hours.
Cytotoxicity was assayed using a non radioactive CytoTox 96 kit based on measuring LDH release during cell lysis (kit #G1780, batch #124100, Promega, Madison, Wis.) according to the supplier's instructions.
The percentage of cytotoxicity was calculated according to the following equation: […]

With Concanavalin A [reference compound] the thymidine take-up (Spleenic cells) was 37.5±6.2 ×10^3 cpm.

With “(3R,9R)-3-[(R)-3-dodecanoyloxytetradecanoylamino]-4oxo-5-aza-9-[(R)-3-hydroxytetradecanoylamino]-1,10-diol 1-dihydrogenphosphate 10-(6-aminohexanoate) [OM-197-MP-AC (R, R)]” the Max concentration (murine macrophage cells; concentration at maximum amplitude) was greater than 100 µg/mL, the EC50 conc (murine macrophage cells; concentration corresponding to 50% of maximum amplitude) was greater than 15.32 mg/L and the Min concentration (murine macrophage cells; lowest concentration inducing a significant response) was 3.35 µg/mL. The “α TNF produced” value ([1]; product 1 μg/ml) was 0 pg/mL, the “α TNF produced” value ([1]; product 10 μg/ml) was 88 pg/mL and the “α TNF produced” value ([1]; product 100 μg/ml) was 84 pg/mL. The “max. Inhibition” value [2] was 100%, the “50% inhibition LPS” value ([2]; LPS concentration at which α TNF production is 50% of control) was 0.68 µg/mL and the “max. Inhibition LPS” value ([2]; LPS concentration corresponding to maximum inhibition) was 0.0013 µg/mL.

B1: Ovalbumin: antigen alone (ovalbumin, Fluka AG) (protein, UniProt P01012 2-386, looked up)
Ovalbumin: GSIGAASMEFCFDVFKELKVHHANENIFYCPIAIMSALAMVYLGAKDSTRTQINKVVRFDKLPGFGDSIEAQCGTSVNVHSSLRDILNQITKPNDVYSFSLASRLYAEERYPILPEYLQCVKELYRGGLEPINFQTAADQARELINSWVESQTNGIIRNVLQPSSVDSQTAMVLVNAIVFKGLWEKAFKDEDTQAMPFRVTEQESKPVQMMYQIGLFRVASMASEKMKILELPFASGTMSMLVLLPDEVSGLEQLESIINFEKLTEWTSSNVMEERKIKVYLPRMKMEEKYNLTSVLMAMGITDVFSSSANLSGISSAESLKISQAVHAAHAEINEAGREVVGSAEAGVDAASVSEEFRADHPFLFCIKHIATNAVLFFGRCVSP
With B1 the “LAL EU/mg” value [3] was less than 0.8 EU/mg and the “LAL ng of LPS equivalent per mg of product” value [3] was <0.064 ng of LPS equivalent per mg of product.

B2: OM-197-FV-ovalbumin: OM-197-FV7 coupled to ovalbumin by reductive amination (conjugate, UniProt P01012 2-386, looked up)
Ovalbumin: B1 Ovalbumin
modifications: OM-197-FV coupled by reductive amination
With B2 the “LAL EU/mg” value [3] was 99 EU/mg and the “LAL ng of LPS equivalent per mg of product” value [3] was 8.21 ng of LPS equivalent per mg of product.

B3: IFN-γ: γ IFN (1000 U/ml) stimulus (protein, UniProt P01579 24-161, looked up)
Interferon gamma: QDPYVKEAENLKKYFNAGHSDVADNGTLFLGILKNWKEESDRKIMQSQIVSFYFKLFKNFKDDQSIQKSVETIKEDMNVKFFNSNKKKRDDFEKLTNYSVTDLNVQRKAIHELIQVMAELSPAAKTGKRKRSQMLFRG
With B3 the “% cytotoxicity” value (K562 cells; Ratio PBMC:K562 5.1) was 17.9%, the “Optical density at 490 nm, K562 + PBMC” value (K562 cells; Ratio PBMC:K562 5.1) was 1.68 and the “Optical density at 490 nm, PBMC alone” value (K562 cells; Ratio PBMC:K562 5.1) was 0.035. The “% cytotoxicity” value (K562 cells; Ratio PBMC:K562 10.1) was 29.4%, the “Optical density at 490 nm, K562 + PBMC” value (K562 cells; Ratio PBMC:K562 10.1) was 1.9 and the “Optical density at 490 nm, PBMC alone” value (K562 cells; Ratio PBMC:K562 10.1) was 0.064. The “% cytotoxicity” value (K562 cells; Ratio PBMC:K562 20.1) was 39.3%, the “Optical density at 490 nm, K562 + PBMC” value (K562 cells; Ratio PBMC:K562 20.1) was 2.1 and the “Optical density at 490 nm, PBMC alone” value (K562 cells; Ratio PBMC:K562 20.1, stimulus 24 hours) was 0.101.
